Target: human recombinant NEK2 protein (Abcam, ab42599), RED-NHS labelled (human) (UniProt P51955)
Test: MST

B1: SPTLC1 protein tested in the MST assay (enzyme)
chain: MATATEQWVLVEMVQALYEAPAYHLILEGILILWIIRLLFSKTYKLQERSDLTVKEKEELIEEWQPEPLVPPVPKDHPALNYNIVSGPPSHKTVVNGKECINFASFNFLGLLDNPRVKAAALASLKKYGVGTCGPRGFYGTFDVHLDLEDRLAKFMKTEEAIIYSYGFATIASAIPAYSKRGDIVFVDRAACFAIQKGLQASRSDIKLFKHNDMADLERLLKEQEIEDQKNPRKARVTRRFIVVEGLYMNTGTICPLPELVKLKYKYKARIFLEESLSFGVLGEHGRGVTEHYGINIDDIDLISANMENALASIGGFCCGRSFVIDHQRLSGQGYCFSASLPPLLAAAAIEALNIMEENPGIFAVLKEKCGQIHKALQGISGLKVVGESLSPAFHLQLEESTGSREQDVRLLQEIVDQCMNRSIALTQARYLEKEEKCLPPPSIRVVVTVEQTEEELERAASTIKEVAQAVLL
B1 gave a Kd of 350 nM.
